In the test the target is Flag-tagged HCMV gp68 expressed by recombinant vaccinia virus (human cytomegalovirus, UniProt P16739). As to the kind of experiment: co-IP. The settings on record: one partner purified.
Flag-tagged HCMV gp68 expressed by recombinant vaccinia virus, sequence (P16739 24-345): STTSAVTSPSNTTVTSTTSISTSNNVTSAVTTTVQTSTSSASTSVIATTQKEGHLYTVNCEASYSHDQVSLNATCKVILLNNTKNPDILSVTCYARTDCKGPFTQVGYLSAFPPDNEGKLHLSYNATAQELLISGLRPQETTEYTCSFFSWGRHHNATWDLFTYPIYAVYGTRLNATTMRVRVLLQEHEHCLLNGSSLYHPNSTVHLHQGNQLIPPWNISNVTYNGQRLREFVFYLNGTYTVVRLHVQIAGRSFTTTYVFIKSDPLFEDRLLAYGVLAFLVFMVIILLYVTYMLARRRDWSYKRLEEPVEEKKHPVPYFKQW

B1: palivizumab (antibody, V domains shown)
VH: QVTLRESGPALVKPTQTLTLTCTFSGFSLSTSGMSVGWIRQPPGKALEWLADIWWDDKKDYNPSLKSRLTISKDTSKNQVVLKVTNMDPADTATYYCARSMITNWYFDVWGAGTTVTVSS
VL: DIQMTQSPSTLSASVGDRVTITCKCQLSVGYMHWYQQKPGKAPKLLIYDTSKLASGVPSRFSGSGSGTEFTLTISSLQPDDFATYYCFQGSGYPFTFGGGTKLEIK
notes: also called IgG1 isotype control antibody; source: bought: MedImmune
In the case of B1, the binding result is on record as “binds”.

The values are drawn from paper PMC4022731 (PLoS Pathogens, 2014).
